As usually defined, the Kd is the free concentration of one partner at which half of the binding sites on the other are occupied at equilibrium, for simple one-to-one binding. Higher therefore signals a looser complex.

Results on one molecule are retold here after patent US20190085033A1 (published 2019).

In this assay the target is BG505-gp120. Kind of assay: SPR. For orientation: SPR reads the build-up and loss of mass on a sensor chip optically.

B1: 4025 (antibody, V domains shown)
VH: EVQLVQSGAEVKKPGESLKISCKASGYSFSSYWIAWVRQMPGKGLEWMGFIYPADSDTRYSPSFQGQGTISADKSISTAYLQWSSLKASDTAMYYCAILGFWGANRGGGGMDVWGQGTTVIVSS
VL: SYELTQPPSVSVSPGQTARITCSGDALPEKYAYWYQQKSGQAPVLIIYEDSKRPSGIPERFSGSRSGTMATLTISGAQVDDEADYYCYSTNSGGTFFVFGTGTKVTVLG
The molecule B1 returned a Kd of 75 nM.
